Our source for the screen value values is publication PMC7954794 (2021).

The chains are these.
B1: S. cerevisiae Abp1 (full length; SH3 domain 535-592 mutated) / Hua2 (parent complex)
chain 1: MALEPIDYTTHSREIDAEYLKIVRGSDPDTTWLIISPNAKKEYEPESTGSSFHDFLQLFDETKVQYGLARVSPPGSDVEKIIIIGWCPDSAPLKTRASFAANFAAVANNLFKGYHVQVTARDEDDLDENELLMKISNAAGARYSIQTSSKQQGKASTPPVKKSFTPSKSPAPVSKKEPVKTPSPAPAAKISSRVNDNNDDDDWNEPELKERDFDQAPLKPNQSSYKPIGKIDLQKVIAEEKAKEDPRLVQKPTAAGSKIDPSSDIANLKNESKLKRDSEFNSFLGTTKPPSMTESSLKNDDDKVIKGFRNEKSPAQLWAERKAKQNSGNAETKAEAPKPEVPEDEPEGEPDVKDLKSKFEGLAASEKEEEEMENKFAPPPKKSEPTIISPKPFSKPQEPVKAEEAEQPKTDYKKIGNPLPGMHIEADNEEEPEENDDDWDDDEDEAAQPPLPSRNVASGAPVQKEEPEQEEIAPSLPSRNSIPAPKQEEAPEQAPEEEIEEEAEEAAPQLPSRSSAAPPPPPRRATPEKKPKENPWATAEYDYDAAEDNELTFVENDKIINIEFVDDDWWLGELEKDGSKGLFPSNYVSLGN
chain 2: MQQTKFGKMYLDHDSVVEYSEDEIVEADRITLGYKKRLSMIENQMRHLLEDFSLDVQQIEPILADLQKYYDAFLQLLQKRNKSLQCKRSTHQPVPSPMNSQTSTNAKVNLSGKLMKFQLNSVQKFDEENILRILQNKIEFEHYFQIDKGKKQKVLLLAVYQCLNGPTRLHKVLNIEGIIHNNSIRTILGKQVSSSKWTVFLYDVKLVLLAHRQDVPNLETSKMIVRYGDLFPCALYFKDHTAY

Variants of B1 are the subject of this experiment. Kind of experiment: DHFR protein-fragment complementation in yeast (Abp1-DHFR F[1,2] x partner-DHFR F[3]), deep mutational scanning, second methotrexate selection vs reference; S. cerevisiae, DHFR-PCA selection in liquid with methotrexate at 30 C, two 72 h selections (the score uses the second); reference = the pre-selection culture.
Take chain 1 MALEPIDYTTHSREIDAEYLKIVRGSDPDTTWLIISPNAKKEYEPESTGSSFHDFLQLFDETKVQYGLARVSPPGSDVEKIIIIGWCPDSAPLKTRASFAANFAAVANNLFKGYHVQVTARDEDDLDENELLMKISNAAGARYSIQTSSKQQGKASTPPVKKSFTPSKSPAPVSKKEPVKTPSPAPAAKISSRVNDNNDDDDWNEPELKERDFDQAPLKPNQSSYKPIGKIDLQKVIAEEKAKEDPRLVQKPTAAGSKIDPSSDIANLKNESKLKRDSEFNSFLGTTKPPSMTESSLKNDDDKVIKGFRNEKSPAQLWAERKAKQNSGNAETKAEAPKPEVPEDEPEGEPDVKDLKSKFEGLAASEKEEEEMENKFAPPPKKSEPTIISPKPFSKPQEPVKAEEAEQPKTDYKKIGNPLPGMHIEADNEEEPEENDDDWDDDEDEAAQPPLPSRNVASGAPVQKEEPEQEEIAPSLPSRNSIPAPKQEEAPEQAPEEEIEEEAEEAAPQLPSRSSAAPPPPPRRATPEKKPKENPYATAEYDYDAAEDNELTFVENDKIINIEFVDDDWWLGELEKDGSKGLFPSNYVSLGN [chain 1 W536Y]: the screen value was 0.0348 DMS score: mean over two replicates of log2(f_test/f_ref + 0.5)/ln 2, minus the synonymous-codon median (not a log2 ….
Next, chain 1 MALEPIDYTTHSREIDAEYLKIVRGSDPDTTWLIISPNAKKEYEPESTGSSFHDFLQLFDETKVQYGLARVSPPGSDVEKIIIIGWCPDSAPLKTRASFAANFAAVANNLFKGYHVQVTARDEDDLDENELLMKISNAAGARYSIQTSSKQQGKASTPPVKKSFTPSKSPAPVSKKEPVKTPSPAPAAKISSRVNDNNDDDDWNEPELKERDFDQAPLKPNQSSYKPIGKIDLQKVIAEEKAKEDPRLVQKPTAAGSKIDPSSDIANLKNESKLKRDSEFNSFLGTTKPPSMTESSLKNDDDKVIKGFRNEKSPAQLWAERKAKQNSGNAETKAEAPKPEVPEDEPEGEPDVKDLKSKFEGLAASEKEEEEMENKFAPPPKKSEPTIISPKPFSKPQEPVKAEEAEQPKTDYKKIGNPLPGMHIEADNEEEPEENDDDWDDDEDEAAQPPLPSRNVASGAPVQKEEPEQEEIAPSLPSRNSIPAPKQEEAPEQAPEEEIEEEAEEAAPQLPSRSSAAPPPPPRRATPEKKPKENPWATAEYDYDAAEDNELTFVENDKIINIEFVDDDWWLGELEKDGSLGLFPSNYVSLGN [chain 1 K580L]: -0.907 DMS score: mean over two replicates of log2(f_test/f_ref + 0.5)/ln 2, minus the synonymous-codon median (not a log2 ….
For chain 1 MALEPIDYTTHSREIDAEYLKIVRGSDPDTTWLIISPNAKKEYEPESTGSSFHDFLQLFDETKVQYGLARVSPPGSDVEKIIIIGWCPDSAPLKTRASFAANFAAVANNLFKGYHVQVTARDEDDLDENELLMKISNAAGARYSIQTSSKQQGKASTPPVKKSFTPSKSPAPVSKKEPVKTPSPAPAAKISSRVNDNNDDDDWNEPELKERDFDQAPLKPNQSSYKPIGKIDLQKVIAEEKAKEDPRLVQKPTAAGSKIDPSSDIANLKNESKLKRDSEFNSFLGTTKPPSMTESSLKNDDDKVIKGFRNEKSPAQLWAERKAKQNSGNAETKAEAPKPEVPEDEPEGEPDVKDLKSKFEGLAASEKEEEEMENKFAPPPKKSEPTIISPKPFSKPQEPVKAEEAEQPKTDYKKIGNPLPGMHIEADNEEEPEENDDDWDDDEDEAAQPPLPSRNVASGAPVQKEEPEQEEIAPSLPSRNSIPAPKQEEAPEQAPEEEIEEEAEEAAPQLPSRSSAAPPPPPRRATPEKKPKENPWATAEYDYDAAEDNELTFVENDKIINIEFVDDDWWLGELEKDGSKGLFPSNYVSLWN [chain 1 G591W], the screen value was -0.547 DMS score: mean over two replicates of log2(f_test/f_ref + 0.5)/ln 2, minus the synonymous-codon median (not a log2 ….
For chain 1 MALEPIDYTTHSREIDAEYLKIVRGSDPDTTWLIISPNAKKEYEPESTGSSFHDFLQLFDETKVQYGLARVSPPGSDVEKIIIIGWCPDSAPLKTRASFAANFAAVANNLFKGYHVQVTARDEDDLDENELLMKISNAAGARYSIQTSSKQQGKASTPPVKKSFTPSKSPAPVSKKEPVKTPSPAPAAKISSRVNDNNDDDDWNEPELKERDFDQAPLKPNQSSYKPIGKIDLQKVIAEEKAKEDPRLVQKPTAAGSKIDPSSDIANLKNESKLKRDSEFNSFLGTTKPPSMTESSLKNDDDKVIKGFRNEKSPAQLWAERKAKQNSGNAETKAEAPKPEVPEDEPEGEPDVKDLKSKFEGLAASEKEEEEMENKFAPPPKKSEPTIISPKPFSKPQEPVKAEEAEQPKTDYKKIGNPLPGMHIEADNEEEPEENDDDWDDDEDEAAQPPLPSRNVASGAPVQKEEPEQEEIAPSLPSRNSIPAPKQEEAPEQAPEEEIEEEAEEAAPQLPSRSSAAPPPPPRRATPEKKPKENPWATAEYDYDALEDNELTFVENDKIINIEFVDDDWWLGELEKDGSKGLFPSNYVSLGN [chain 1 A546L], the screen value was -0.283 DMS score: mean over two replicates of log2(f_test/f_ref + 0.5)/ln 2, minus the synonymous-codon median (not a log2 ….
Next, chain 1 MALEPIDYTTHSREIDAEYLKIVRGSDPDTTWLIISPNAKKEYEPESTGSSFHDFLQLFDETKVQYGLARVSPPGSDVEKIIIIGWCPDSAPLKTRASFAANFAAVANNLFKGYHVQVTARDEDDLDENELLMKISNAAGARYSIQTSSKQQGKASTPPVKKSFTPSKSPAPVSKKEPVKTPSPAPAAKISSRVNDNNDDDDWNEPELKERDFDQAPLKPNQSSYKPIGKIDLQKVIAEEKAKEDPRLVQKPTAAGSKIDPSSDIANLKNESKLKRDSEFNSFLGTTKPPSMTESSLKNDDDKVIKGFRNEKSPAQLWAERKAKQNSGNAETKAEAPKPEVPEDEPEGEPDVKDLKSKFEGLAASEKEEEEMENKFAPPPKKSEPTIISPKPFSKPQEPVKAEEAEQPKTDYKKIGNPLPGMHIEADNEEEPEENDDDWDDDEDEAAQPPLPSRNVASGAPVQKEEPEQEEIAPSLPSRNSIPAPKQEEAPEQAPEEEIEEEAEEAAPQLPSRSSAAPPPPPRRATPEKKPKENPWATAEYDYDAAEDNELTFVENDKIINIEFVDDDWWLGELEQDGSKGLFPSNYVSLGN [chain 1 K576Q]: -0.814 DMS score: mean over two replicates of log2(f_test/f_ref + 0.5)/ln 2, minus the synonymous-codon median (not a log2 ….
